Entries after “also recorded” stand apart in the source; their conditions may differ.
Columns and labels:
3T3 cells = test: 3T3 cell adhesion to CTGF-coated non-tissue culture plastic; format: cell-based; details: HPLC-purified E. coli-derived protein
Experimental: (§1) Adhesion is a well-accepted and reproducible measure of CTGF activity. […] Using 4 liters of CHO conditioned medium approximately 0.5 mg, 1 mg, and 0.1 mg, respectively, of 38 kDa, 16-20 kDa, and 10 kDa CTGF (CTGF1-4, CTGF3-4 and CTGF4, respectively) were produced.
(§2) To confirm the functionality of residues 247-349 of SEQ ID NO: 1 (containing module 4 alone; denoted as CTGF4), this region of CTGF was produced as a maltose binding protein (MBP) fusion protein in E. coli as described in Ball et al., J Endocrinol; 176: R1-R7, 2003. […] HPLC-purified 10 kDa CTGF promoted 3T3 cell adhesion in a dose-dependent manner, with maximal binding at 8 ng/well. […] Also, the binding of all cell types to 10 kDa CTGF was reduced by EDTA treatment, though this effect was relatively modest in 3T3 cells. Thus, E coli-derived CTGF isoforms comprising essentially module 4 are intrinsically functional in the absence of the other constituent modules of CTGF.

[1] = test system: vascular endothelial cells, intestinal epithelial, and hepatic stellate cells; test: Adhesion of cell types to 10 kDa CTGF; format: cell-based; details: vascular endothelial, intestinal epithelial, hepatic stellate cells
Experimental: as §2

neonatal mice = test: Fibrogenic response after subcutaneous administration to neonatal mice; format: in vivo; details: administered subcutaneously to neonatal mice
Experimental: CTGF is also known to induce transdifferentiaion of corneal epithelial cells into α […] muscle actin (αSMA)-expressing myofibroblasts. For example, cells are cultured for 24 hours in the presence and absence of CTGF peptide or CTGF modulator. Subsequently, the treated cells are stained for αSMA. CTGF activity also may be analyzed by measuring for a classic fibrogenic response as described in Leask et al., Mol. Pathol; 54: 180-183, 2001. For example, CTGF peptide or CTGF modulator are administered into the subcutaneous region of the neck of 3 day old mice for 7 consecutive days. Fourteen days after the last injection, the mice are sacrificed and the injected areas are stained for αSMA.
as §1

integrin αvβ3 = integrin αvβ3 (Homo sapiens, UniProt P05106+P06756); test: Solid phase ELISA of integrin αvβ3 binding; details: coated at different concentrations
Experimental: Solid phase binding studies were also performed to investigate the binding of CTGF isoforms and αvβ3. Each CTGF isoform or vitronectin was individually coated onto microtiter wells at different concentrations, and the subsequent binding of αvβ3 was detected by ELISA using an anti-human αvβ3 monoclonal antibody. […] Saturation of binding occurred at 2 μg/ml for each CTGF isoform and 4 μg/ml for vitronectin.
In order to identify the αvβ3 binding site in CTGF4, eighteen synthetic peptides spanning the entire C-terminal region of CTGF4 (residues 246-349 of SEQ ID NO: 1) were synthesized and used as potential blocking agents in the solid phase binding studies as described in Example 3. […] Integrin αvβ3 was detected by successive incubation with anti-human αvβ3 monoclonal antibody diluted in blocking solution (1:1000), and followed by HRP-conjugated goat anti-mouse IgG (1:4000). The color reaction was developed using the horseradish peroxidase ELISA reagents (Chemicon), and the absorbance at 450 nm was measured using Bio Assay Reader (HTS700).
The ability of mutant CTGF4 to bind to integrin αvβ3 was assessed by solid phase ELISA which measured the ability of purified integrin αvβ3 to bind to the CTGF4 mutants.

[2] = test system: pancreatic stellate cells (PSC); test: PSC adhesion assay on coated wells; format: cell-based, rat; details: coated at 2 μg/ml
Source text: Rat PSCs were isolated by a modification of the method described by Phillips et al., Gut; 52:677-82, 2003. Briefly, pancreatic tissue was digested in situ with 0.03% collagenase P (Roche, Indianapolis, Ind.) in HBSS by perfusion through the thoracic aorta. This protocol was approved by the Institutional Animal Care and Use Committee of Children's Research Institute, Columbus, Ohio. The tissue was pooled, minced with scissors, and then digested with 0.05% collagenase P, 0.02% protease XIV (Sigma, St. Louis), and DNase I (Roche, Indianapolis, Ind.) in HBSS. The resulting cell suspension was centrifuged in a 12% Optiprep gradient at 1400 g for 14 minutes. Stellate cells separated into a hazy band just above the interface of a the gradient and the aqueous buffer. This band was harvested, and the cells washed and resuspended in DMEM supplemented with 25 mM Hepes buffer, 10% FBS, and 100 U/ml penicillin in, 100 μg/ml streptomycin. The, cells were maintained at 37° C. in a humidified atmosphere of 5% CO2/95% air.
The ability of activated PSC to adhere to non-tissue culture plastic microtiter wells coated with recombinant CTGF1-4, CTGF3-4 or CTGF4 was investigated. The solid phase binding assay was carried out as described in Example 2. […] To assess the possibility that CTGF-mediated PSC adhesion involved cell surface integrins, the effect of divalent cations on cell adhesion was examined, as described in Example 2. […]
Because CTGF is a heparin-binding protein, this property was further investigated.
To identify the peptides that bind to PSCs, cell adhesion assays were carried out as described in Example 3.
To further investigate the peptide binding, P2 or P5 (10 μM) or vehicle buffer alone (no add) were added to PSC cell suspensions for 30 minutes at room temperature.

integrin α5β1 = integrin α5β1 (Homo sapiens, UniProt P05556+P08648); test: Solid phase ELISA of integrin α5β1 binding; details: coated at 2 μg/ml; 1 μg/ml integrin
Experimental: In a second approach, a solid phase binding assay was used in which CTGF1-4 or FN were individually coated onto microtiter wells that were subsequently incubated with purified integrin α5β1. The presence of immobilized integrin α5β1 was detected by ELISA using an anti-integrin α5β1 antibody similar to the methods described in Example 3 above. In addition, CTGF1-4 bound to integrin α5β1 in a dose-dependent manner, with maximal binding at 2 μg/ml CTGF. This level of CTGF1-4 (2 μg/ml) binding was the same as that elicited by 2 μg/ml FN, a well known ligand of integrin α5β1. In a similar experiment, 2 μg/ml of CTGF1-4;CTGF3-4 or CTGF4 were individually precoated onto microtiter wells. Using the solid-phase assay, integrin α5β1 bound to CTGF1-4, CTGF3-4 or CTGF4 See FIG. 5 (Panel B).
To directly analyze whether α5β1 integrin binds to CTGF4, microtiter wells coated with CTGF4 (2 μg/ml) or FN (4 μg/ml) were used in an ELISA assay to detect integrin binding, as described in Example 3. For these assays, 1 μg/ml integrin α5β1, alone or in the presence of 35 μM of P2peptide (CTGF[257-272]) and 35 μM of P5 peptide (CTGF [285-291]), were added to the precoated plates. […] The binding between CTGF4 and integrin α5 β1 was blocked by peptide P5 (CTGF [285-291]) or peptide P2 (CTGF[257-272]). […]

PSCs = test: PSC chemotaxis (migration) assay in culture insert; format: cell-based, rat; details: substance in lower chamber
Experimental: To examine whether CTGF plays a role in PSC migration, a chemotaxis assay was carried out in which the migratory behavior of PSCs in the upper chamber of a culture insert was assessed following addition of CTGF to the lower chamber. […] PSC migration was also promoted by FN, PDGF or TGF-β1.

Sequence of integrin α5β1 (P08648 42-894 limits assumed): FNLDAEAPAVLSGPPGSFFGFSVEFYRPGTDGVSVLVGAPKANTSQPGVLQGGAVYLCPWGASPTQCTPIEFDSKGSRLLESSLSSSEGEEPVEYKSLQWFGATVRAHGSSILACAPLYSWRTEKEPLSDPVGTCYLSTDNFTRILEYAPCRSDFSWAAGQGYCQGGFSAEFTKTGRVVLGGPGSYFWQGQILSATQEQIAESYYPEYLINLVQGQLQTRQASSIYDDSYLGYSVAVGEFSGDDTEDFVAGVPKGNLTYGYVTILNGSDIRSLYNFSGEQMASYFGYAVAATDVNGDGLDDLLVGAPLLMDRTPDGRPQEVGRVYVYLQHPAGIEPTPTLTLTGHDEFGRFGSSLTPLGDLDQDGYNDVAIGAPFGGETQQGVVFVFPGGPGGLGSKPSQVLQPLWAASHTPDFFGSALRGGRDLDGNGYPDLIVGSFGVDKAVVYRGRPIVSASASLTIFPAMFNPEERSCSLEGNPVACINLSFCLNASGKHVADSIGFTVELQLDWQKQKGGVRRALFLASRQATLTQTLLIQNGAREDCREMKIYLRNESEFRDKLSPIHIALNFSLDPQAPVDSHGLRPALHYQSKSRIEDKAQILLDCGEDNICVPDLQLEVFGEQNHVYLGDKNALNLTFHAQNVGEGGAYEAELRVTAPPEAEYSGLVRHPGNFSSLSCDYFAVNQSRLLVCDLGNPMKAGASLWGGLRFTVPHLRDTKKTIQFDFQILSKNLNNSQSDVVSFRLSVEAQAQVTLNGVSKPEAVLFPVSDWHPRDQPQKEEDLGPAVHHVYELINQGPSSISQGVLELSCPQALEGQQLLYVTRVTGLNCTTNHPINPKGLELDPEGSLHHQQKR
Sequence of integrin α5β1 (P08648 895-1049 partner limits assumed): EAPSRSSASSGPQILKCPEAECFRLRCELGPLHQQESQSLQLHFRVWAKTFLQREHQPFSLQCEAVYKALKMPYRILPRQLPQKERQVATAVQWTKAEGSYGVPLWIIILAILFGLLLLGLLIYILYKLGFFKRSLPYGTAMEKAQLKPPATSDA
Sequence of integrin α5β1 (P05556 21-798): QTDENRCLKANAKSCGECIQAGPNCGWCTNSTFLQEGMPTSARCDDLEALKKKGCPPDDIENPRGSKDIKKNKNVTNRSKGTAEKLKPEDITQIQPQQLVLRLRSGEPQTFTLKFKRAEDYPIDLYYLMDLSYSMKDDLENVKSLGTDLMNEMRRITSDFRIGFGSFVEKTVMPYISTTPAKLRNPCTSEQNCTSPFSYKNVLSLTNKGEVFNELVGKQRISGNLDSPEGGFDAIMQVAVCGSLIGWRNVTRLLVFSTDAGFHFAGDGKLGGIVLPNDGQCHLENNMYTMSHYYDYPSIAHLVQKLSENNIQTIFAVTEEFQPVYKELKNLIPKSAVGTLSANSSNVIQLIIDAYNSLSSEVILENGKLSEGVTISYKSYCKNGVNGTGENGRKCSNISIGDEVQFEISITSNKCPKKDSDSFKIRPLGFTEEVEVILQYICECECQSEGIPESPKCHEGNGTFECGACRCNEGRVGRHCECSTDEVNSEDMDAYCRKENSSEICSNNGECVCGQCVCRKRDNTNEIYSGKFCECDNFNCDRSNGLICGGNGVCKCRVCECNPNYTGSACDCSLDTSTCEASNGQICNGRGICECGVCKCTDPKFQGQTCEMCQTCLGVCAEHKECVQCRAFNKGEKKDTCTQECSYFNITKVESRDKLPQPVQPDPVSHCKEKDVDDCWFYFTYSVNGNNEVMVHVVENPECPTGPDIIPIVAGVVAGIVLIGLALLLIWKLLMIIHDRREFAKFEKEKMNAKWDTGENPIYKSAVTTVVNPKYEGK
Sequence of integrin αvβ3 (P06756 31-889 limits assumed): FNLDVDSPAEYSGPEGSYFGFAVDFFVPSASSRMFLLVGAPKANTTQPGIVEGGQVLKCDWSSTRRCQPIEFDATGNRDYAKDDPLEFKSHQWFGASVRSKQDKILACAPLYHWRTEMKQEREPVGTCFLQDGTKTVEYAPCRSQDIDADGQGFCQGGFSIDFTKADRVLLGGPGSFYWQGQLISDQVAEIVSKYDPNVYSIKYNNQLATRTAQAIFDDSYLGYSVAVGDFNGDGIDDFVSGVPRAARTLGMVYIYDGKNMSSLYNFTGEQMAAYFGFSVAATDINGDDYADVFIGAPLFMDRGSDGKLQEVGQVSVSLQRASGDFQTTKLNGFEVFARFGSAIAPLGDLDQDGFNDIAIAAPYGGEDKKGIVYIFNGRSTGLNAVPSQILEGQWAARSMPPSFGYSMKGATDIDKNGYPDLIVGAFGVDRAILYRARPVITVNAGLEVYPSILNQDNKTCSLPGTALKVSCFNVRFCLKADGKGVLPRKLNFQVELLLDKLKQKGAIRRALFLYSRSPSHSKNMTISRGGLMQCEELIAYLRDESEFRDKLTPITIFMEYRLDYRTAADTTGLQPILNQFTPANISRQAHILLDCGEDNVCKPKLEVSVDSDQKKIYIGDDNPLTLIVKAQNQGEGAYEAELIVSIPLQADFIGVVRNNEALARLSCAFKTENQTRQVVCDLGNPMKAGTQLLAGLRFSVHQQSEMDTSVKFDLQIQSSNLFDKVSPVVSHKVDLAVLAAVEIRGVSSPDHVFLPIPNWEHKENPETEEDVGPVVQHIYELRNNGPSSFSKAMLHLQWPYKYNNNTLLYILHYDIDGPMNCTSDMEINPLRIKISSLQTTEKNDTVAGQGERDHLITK
Sequence of integrin αvβ3 (P06756 891-1048 partner limits assumed): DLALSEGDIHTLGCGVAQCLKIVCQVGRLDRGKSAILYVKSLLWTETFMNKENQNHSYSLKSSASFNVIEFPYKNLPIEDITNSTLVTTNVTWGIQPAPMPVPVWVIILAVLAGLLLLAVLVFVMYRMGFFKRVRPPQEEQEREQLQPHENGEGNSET
Sequence of integrin αvβ3 (P05106 27-788): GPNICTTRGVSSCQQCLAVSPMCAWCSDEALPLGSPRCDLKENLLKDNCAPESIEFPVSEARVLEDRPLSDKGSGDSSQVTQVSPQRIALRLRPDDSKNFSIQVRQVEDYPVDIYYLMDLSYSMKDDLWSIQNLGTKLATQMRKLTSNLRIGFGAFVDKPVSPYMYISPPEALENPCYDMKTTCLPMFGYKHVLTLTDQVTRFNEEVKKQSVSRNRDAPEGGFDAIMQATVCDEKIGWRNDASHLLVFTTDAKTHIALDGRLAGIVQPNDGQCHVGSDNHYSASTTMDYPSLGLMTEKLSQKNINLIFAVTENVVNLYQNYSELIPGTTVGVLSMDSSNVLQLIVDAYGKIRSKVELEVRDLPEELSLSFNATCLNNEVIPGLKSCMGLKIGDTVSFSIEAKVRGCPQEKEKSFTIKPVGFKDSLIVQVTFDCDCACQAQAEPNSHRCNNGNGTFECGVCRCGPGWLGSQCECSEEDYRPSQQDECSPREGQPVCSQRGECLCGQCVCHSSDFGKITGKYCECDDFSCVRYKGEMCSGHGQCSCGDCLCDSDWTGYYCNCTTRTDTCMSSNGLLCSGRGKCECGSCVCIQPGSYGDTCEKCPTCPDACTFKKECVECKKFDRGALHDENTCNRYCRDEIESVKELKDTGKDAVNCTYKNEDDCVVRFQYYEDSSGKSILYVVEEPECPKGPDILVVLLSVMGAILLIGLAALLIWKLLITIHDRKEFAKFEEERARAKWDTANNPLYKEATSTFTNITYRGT

B1: CTGF4: C-terminal CTGF fragment comprising essentially module 4 alone, residues 247-349 (protein)
chain: EENIKKGKKCIRTPKISKPIKFELSGCTSMKTYRAKFCGVCTDGRCCTPHRTTTLPVEFKCPDGEVMKKNMMFIKTCACHYNCPGDNDIFESLYYRKMYGDMA
B1 was tested, and the “3T3 cell adhesion, maximal binding at” value (3T3 cells) was 8 ng/well, the “adhesion of several additional cell types” value [1] was “promoted the dose-dependent adhesion” and the fibrogenic response (neonatal mice) was “most robust response”. The “binding to αvβ3” value (integrin αvβ3) was “strongest affinity”, the “PSC adhesion supported by the coated substance” value [2] was “significantly promoted” and the “binding to integrin α5β1” value (integrin α5β1) was “bound; also recorded: bound strongly”. The PSC migration (PSCs) was “induced PSC migration”.

— patent US20050153395A1, “Unique integrin binding site in connective tissue growth factor (CTGF)” (CHILDREN'S HOSPITAL INC., priority 2003, published 2005)
